Results published in the RNAGym collection of RNA variant scans (doi:10.1093/molbev/msab373).

B1: Azoarcus group I ribozyme (parent)
chain: GUGCCUUGCGCCGGGAAACCACGCAAGGGAUGGUGUCAAAUUCGGCGAAACCUAAGCGCCCGCCCGGGCGUAUGGCAACGCCGAGCCAAGCUUCGGCGCCUGCGCCGAUGAAGGUGUAGAGACUAGACGGCACCCACCUAAGGCAAACGCUAUGGUGAAGGCAUAGUCCAGGGAGUGGCGAAAGUCACACAAACCGG

Variants of: B1
Experiment: reverse-splicing fitness (ratio to wild type); higher = more active; in vitro selection; Mg2+ level not given
Summary of the method: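 An in vitro group I ribozyme library with randomized positions was T7-transcribed and gel-purified. In triplicate, 10 pmol RNA in EPPS pH 7.5 was reacted with 50 pmoles of a 30-nt RNA substrate for 1 h at 37 °C across several added MgCl2 levels (1–48 mM), then stopped with EDTA. Products were reverse transcribed from a substrate-complementary primer, PCR-amplified and sequenced (HiSeq 4000). Fitness is a variant's read proportion after selection over that before, normalised to wild type.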

Row | Variant | reverse-splicing fitness
1 | C82G A111U A120G A145G C150G U176G | 0.00601
2 | C82G A111U A120G A145U C150G U176C | 0.0104
3 | C82G A111U A120G A145U C150G U176A | 0.00634
4 | C82G A111U A120G A145U C150G U176G | 0.0039
5 | C82G A111U A120C A145U U176G | 0.00709
6 | C82G A111U A120G A145C C150U C169A U176A | 0.0138
7 | C82G A111U A120G A145C C150U C169A U176C | 0.0083
8 | C82G A111U A120G A145C C150U C169A U176G | 0.00544
9 | C82G A111U A120C C150A C169U U176C | 0.0159
10 | C82G A111U A120C C150A C169U U176A | 0.018
11 | C82G A111U A120C C150A C169U U176G | 0.00816
12 | C82G A111U A120G A145U C169G | 0.0137
13 | C82G A111U A120G A145U C169A | 0.00825
14 | C82G A111U A120G A145U C169U | 0.01
15 | C82G A111U A120G C150G C169U U176A | 0.00893
16 | C82G A111U A120G C150G C169U U176G | 0.00592
17 | C82G A111U A120G C150G C169U U176C | 0.0123
18 | C82G A111U A120G A145U C150A C169U | 0.00711
19 | C82G A111U A120G A145U C150A C169A | 0.00975
20 | C82G A111U A120G A145U C150A C169G | 0.00835
21 | C82G A111U A120G A145U C150U C169U | 0.00944

Row | Variant | reverse-splicing fitness
22 | C82G A111U A120G A145U C150U C169G | 0.0123
23 | C82G A111U A120G A145U C150U C169A | 0.0117
24 | C82G A111U A120C C150G U176A | 0.00531
25 | C82G A111U A120C C150G U176C | 0.009
26 | C82G A111U A120C C150G U176G | 0.00396
27 | C82G A111U A120G A145U C150A C169A U176G | 0.00527
28 | C82G A111U A120G A145U C150A C169A U176A | 0.0161
29 | C82G A111U A120G A145U C150A C169A U176C | 0.0142
30 | C82G A111U A120G A145U C169G U176G | 0.00405
31 | C82G A111U A120G A145U C169G U176A | 0.0119
32 | C82G A111U A120G A145U C169G U176C | 0.0162
33 | C82G A111U A120C C150G C169U U176A | 0.00756
34 | C82G A111U A120C C150G C169U U176C | 0.013
35 | C82G A111U A120C C150G C169U U176G | 0.00705
36 | C82G A111U A120G A145C C169U | 0.00836
37 | C82G A111U A120G A145C C169G | 0.0125
38 | C82G A111U A120G A145C C169A | 0.00794
39 | C82G A111U A120G C150G C169A U176A | 0.0115
40 | C82G A111U A120G C150G C169A U176G | 0.00726
41 | C82G A111U A120G C150G C169A U176C | 0.0111
42 | C82G A111U A120G A145C C150U C169U U176G | 0.00513

Row | Variant | reverse-splicing fitness
43 | C82G A111U A120G A145C C150U C169U U176C | 0.013
44 | C82G A111U A120G A145C C150U C169U U176A | 0.019
45 | C82G A111U A120G C150G C169A | 0.00883
46 | C82G A111U A120G C150G C169U | 0.00861
47 | C82G A111U A120G C150G C169G | 0.00797
48 | C82G A111U A120G U176C | 0.0216
49 | C82G A111U A120G U176A | 0.0148
50 | C82G A111U A120G U176G | 0.00905
51 | C82G A111U A120C C150A | 0.0117
52 | C82G A111U A120C C150G | 0.00875
53 | C82G A111U A120C C150U | 0.0329
54 | C82G A111U A120G A145G C150G C169G U176C | 0.0116
55 | C82G A111U A120G A145G C150G C169G U176G | 0.00621
56 | C82G A111U A120G A145G C150G C169G U176A | 0.0104
57 | C82G A111U A120G A145C C169G U176A | 0.0245
58 | C82G A111U A120G A145C C169G U176G | 0.00404
59 | C82G A111U A120G A145C C169G U176C | 0.0172
60 | C82G A111U A120G A145G C169U U176G | 0.00501
61 | C82G A111U A120G A145G C169U U176A | 0.0198
62 | C82G A111U A120G A145G C169U U176C | 0.0161
63 | C82G A111U A120U A145C | 0.0386

Row | Variant | reverse-splicing fitness
64 | C82G A111U A120G C169A U176G | 0.00437
65 | C82G A111U A120G C169A U176C | 0.0215
66 | C82G A111U A120G C169A U176A | 0.017
67 | C82G A111U A120G A145G C150U C169A | 0.0121
68 | C82G A111U A120G A145G C150U C169U | 0.0112
69 | C82G A111U A120G A145G C150U C169G | 0.0128
70 | C82G A111U A120G A145G C150G | 0.00786
71 | C82G A111U A120G A145G C150U | 0.0139
72 | C82G A111U A120G A145G C150A | 0.00899
73 | C82G A111U A120C C150G C169G U176C | 0.00622
74 | C82G A111U A120C C150G C169G U176A | 0.00766
75 | C82G A111U A120C C150G C169G U176G | 0.00747
76 | C82G A111U A120G A145G C150A C169A | 0.0109
77 | C82G A111U A120G A145G C150A C169G | 0.00903
78 | C82G A111U A120G A145G C150A C169U | 0.00945
79 | C82G A111U A120G A145C C150G C169A U176G | 0.00582
80 | C82G A111U A120G A145C C150G C169A U176A | 0.00745
81 | C82G A111U A120G A145C C150G C169A U176C | 0.0077
82 | C82G A111U A120G A145G C150G C169U U176G | 0.00754
83 | C82G A111U A120G A145G C150G C169U U176C | 0.0128
